Measurements published in article PMC4730206, “The solution configurations of inactive and activated DntR have implications for the sliding dimer mechanism of LysR transcription factors” (Scientific Reports, 2016).
Each block holds one compound with its values, some of them ahead of it.

Tests used:
[1] = target: DntR-His6 from Burkholderia sp. (wild type) (Burkholderia sp.) (UniProt Q7WT50); experiment: SAXS; static SAXS of apo-DntR pre-incubated with 100 μM sodium salicylate (holo-DntR); repeated as SEC-SAXS with 5 mM salicylate; rigid body modelling of a tetramer
[2] = target: DntR-His6 from Burkholderia sp. (wild type) (Burkholderia sp.) (UniProt Q7WT50); experiment: crystal structure; apo-DntR crystals, hanging drops at 18 °C, 0.2 M sodium potassium tartrate, 0.1 M Tris-HCl pH 8.0, 5% PEG 6000; space group P6(5)22, two monomers in the asymmetric unit, tetramer from two symmetry-related dimers
[3] = target: DntR-His6 from Burkholderia sp. (wild type) (Burkholderia sp.) (UniProt Q7WT50); experiment: SAXS; static SAXS without inducer, in 1 M NaCl, 2 mM MgSO4, 1 mM DTT, 17% glycerol, 25 mM NaH2PO4-NaOH pH 8.0; apo-DntR at 3, 1 and 0.5 mg/mL (repeated as SEC-SAXS on Superdex 200), H169T-DntR at 0.7 mg/mL; fits to tetramer models
DntR (DntR-His6) = target: T1, DntR (DntR-His6) (Burkholderia sp. DNT, UniProt Q7WT50); experiment: Thermofluor thermal stability assay; format: binding; settings: 100 µM sodium salicylate; inducer; apo-protein reference Tm in the 2nd table, row 4
T1 construct: full-length, C-terminal His6 tag (DntR-His6), recombinant, modelled to H303, homotetramer
T1 sequence (Q7WT50 1-301): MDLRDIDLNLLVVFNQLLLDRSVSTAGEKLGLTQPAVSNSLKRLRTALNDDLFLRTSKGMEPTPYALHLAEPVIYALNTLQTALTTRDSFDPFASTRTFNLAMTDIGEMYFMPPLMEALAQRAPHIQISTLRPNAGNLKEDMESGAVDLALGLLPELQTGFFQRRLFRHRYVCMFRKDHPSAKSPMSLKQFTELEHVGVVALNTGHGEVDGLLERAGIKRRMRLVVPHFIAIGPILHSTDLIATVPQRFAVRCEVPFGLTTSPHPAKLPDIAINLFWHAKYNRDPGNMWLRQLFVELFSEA
Text: Thermofluor thermal stability assay on DntR (DntR-His6)

[4] = target: H169T-DntR-His6 (Burkholderia sp.) (UniProt Q7WT50); experiment: crystal structure; H169T-DntR crystals, 0.2 M sodium tartrate, 0.2 M potassium thiocyanate, 0.5 mM sodium salicylate, 0.1 M Tris pH 8.5, 20% PEG 8000; thiocyanate bound; space group P6(5)22, dimer in the asymmetric unit, tetramer from two symmetry-related dimers
[5] = target: H169T-DntR-His6 (Burkholderia sp.) (UniProt Q7WT50); experiment: SAXS; static SAXS without inducer, in 1 M NaCl, 2 mM MgSO4, 1 mM DTT, 17% glycerol, 25 mM NaH2PO4-NaOH pH 8.0; apo-DntR at 3, 1 and 0.5 mg/mL (repeated as SEC-SAXS on Superdex 200), H169T-DntR at 0.7 mg/mL; fits to tetramer models

stoichiometry N [1]: 4
stoichiometry N [2]: 4
stoichiometry N [3]: 4
Compound: DntR-His6 from Burkholderia sp. (wild type) (from UniProt Q7WT50 1-301) (natural protein)

Compound: O=C(O)c1ccccc1O [salicylate]
Tm (^oC) (DntR (DntR-His6)): 51 °C

stoichiometry N [4]: 4
stoichiometry N [5]: 4
Compound: H169T-DntR-His6 (from UniProt Q7WT50 1-301) (natural protein)
